Reference: PMC9950535, “Divalent metal cofactors differentially modulate RadA-mediated strand invasion and exchange in Saccharolobus solfataricus” (Bioscience Reports, 2023)
Values belong to the molecule of their own block, whether it stands above or below them.

Experiments:
[1] = target: T1, SsoRadA (Saccharolobus solfataricus, UniProt Q55075); assay: TLC ATPase assay, [γ-32P]ATP; type: biochemical
T1 construct: gene radA
T1 sequence (Q55075 1-324): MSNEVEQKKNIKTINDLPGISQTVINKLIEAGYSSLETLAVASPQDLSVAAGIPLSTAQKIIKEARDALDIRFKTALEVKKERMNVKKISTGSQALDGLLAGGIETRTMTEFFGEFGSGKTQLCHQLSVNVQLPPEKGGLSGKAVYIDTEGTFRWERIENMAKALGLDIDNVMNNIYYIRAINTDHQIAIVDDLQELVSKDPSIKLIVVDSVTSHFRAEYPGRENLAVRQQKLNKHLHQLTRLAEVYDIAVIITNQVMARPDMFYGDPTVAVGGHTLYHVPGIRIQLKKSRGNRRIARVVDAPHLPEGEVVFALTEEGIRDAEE

[2] = target: T1, SsoRadA; assay: filter binding
[3] = substrate: Nc1ncnc2c1ncn2[C@@H]1O[C@H](COP(=O)(O)OP(=O)(O)OP(=O)(O)O)[C@@H](O)[C@H]1O; assay: TLC ATPase assay, initial rates; type: biochemical, Saccharolobus solfataricus; details: 10 mM Mg2+, 20 μM (nucleotides) φX174 ssDNA, 0.5 μM SsoRadA, 25 mM Tris acetate pH 7.5, 65°C
[4] = target: T2, SsoRadA (Saccharolobus solfataricus, UniProt Q55075 1-324); assay: filter binding; 10 mM Mn2+, no ATP; Filter binding: 40 mM HEPES pH 7.0, 50 mM KCl, 10 mM CaCl2, MgCl2 or MnCl2, 20 pmol SsoRadA, 3 uM ATP where included, ssDNA varied; temperature not stated; details: protein: recombinant; single strand
T2 sequence: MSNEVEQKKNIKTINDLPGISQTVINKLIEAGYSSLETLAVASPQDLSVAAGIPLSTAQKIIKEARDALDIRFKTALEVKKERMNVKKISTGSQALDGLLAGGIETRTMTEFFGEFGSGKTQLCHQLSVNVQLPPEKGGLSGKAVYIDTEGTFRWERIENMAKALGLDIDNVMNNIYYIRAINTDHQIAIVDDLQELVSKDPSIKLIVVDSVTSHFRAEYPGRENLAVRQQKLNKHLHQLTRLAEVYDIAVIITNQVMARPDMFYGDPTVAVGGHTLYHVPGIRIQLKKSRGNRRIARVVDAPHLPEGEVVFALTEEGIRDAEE

[5] = target: T2, SsoRadA; assay: filter binding; 10 mM Mg2+, 3 uM ATP; Filter binding: 40 mM HEPES pH 7.0, 50 mM KCl, 10 mM CaCl2, MgCl2 or MnCl2, 20 pmol SsoRadA, 3 uM ATP where included, ssDNA varied; temperature not stated; details: protein: recombinant; single strand
[6] = target: T2, SsoRadA; assay: filter binding; 10 mM Mn2+, 3 uM ATP; Filter binding: 40 mM HEPES pH 7.0, 50 mM KCl, 10 mM CaCl2, MgCl2 or MnCl2, 20 pmol SsoRadA, 3 uM ATP where included, ssDNA varied; temperature not stated; details: protein: recombinant; single strand

Molecule: Nc1ncnc2c1ncn2[C@@H]1O[C@H](CO[P@](=O)(O)O[P@](=O)(O)O[P@@](=O)(O)S)[C@@H](O)[C@H]1O [ATPγS]
IC50 [1]: 87800 nM

Kd [2]: 1130 ± 440 nM
Molecule: Nc1ncnc2c1ncn2[C@@H]1O[C@H](COP(=O)(O)OP(=O)(O)OP(=O)(O)O)[C@@H](O)[C@H]1O [ATP]

IC50 [1]: 112000 nM
Molecule: Nc1ncnc2c1ncn2[C@@H]1O[C@H](COP(=O)(O)OP(=O)(O)O)[C@@H](O)[C@H]1O [ADP]

B1: SsoRadA (Saccharolobus solfataricus P2) (protein)
chain: MSNEVEQKKNIKTINDLPGISQTVINKLIEAGYSSLETLAVASPQDLSVAAGIPLSTAQKIIKEARDALDIRFKTALEVKKERMNVKKISTGSQALDGLLAGGIETRTMTEFFGEFGSGKTQLCHQLSVNVQLPPEKGGLSGKAVYIDTEGTFRWERIENMAKALGLDIDNVMNNIYYIRAINTDHQIAIVDDLQELVSKDPSIKLIVVDSVTSHFRAEYPGRENLAVRQQKLNKHLHQLTRLAEVYDIAVIITNQVMARPDMFYGDPTVAVGGHTLYHVPGIRIQLKKSRGNRRIARVVDAPHLPEGEVVFALTEEGIRDAEE
Km [3]: 2.3 ± 0.47 µM | kcat [3]: 0.0283 ± 0.0015 s⁻¹

B2: 63-mer oligonucleotide (ssDNA)
DNA: ACAGCACCAATGAAATCTATTAAGCTCCTCATCGTCCGCAAAAATATCGTCACCTCAAAAGGA
Kd [4]: 82.4 ± 13.2 nM | Kd [5]: 21.3 ± 1.6 nM | Kd [6]: 23.1 ± 14.4 nM
